Measured values published in IntAct's records for PubMed 17392788.

B1: "Lethal(2) giant larvae protein homolog SRO7" (Saccharomyces cerevisiae), Q12038 (parent)
chain: MFGSKRLKNVKEAFKSLKGQNSETPIENSKASFKSKNSKTSTISKDAKSSSSLKIPISSNNKNKIFSLAETNKYGMSSKPIAAAFDFTQNLLAIATVTGEVHIYGQQQVEVVIKLEDRSAIKEMRFVKGIYLVVINAKDTVYVLSLYSQKVLTTVFVPGKITSIDTDASLDWMLIGLQNGSMIVYDIDRDQLSSFKLDNLQKSSFFPAARLSPIVSIQWNPRDIGTVLISYEYVTLTYSLVENEIKQSFIYELPPFAPGGDFSEKTNEKRTPKVIQSLYHPNSLHIITIHEDNSLVFWDANSGHMIMARTVFETEINVPQPDYIRDSSTNAAKISKVYWMCENNPEYTSLLISHKSISRGDNQSLTMIDLGYTPRYSITSYEGMKNYYANPKQMKIFPLPTNVPIVNILPIPRQSPYFAGCHNPGLILLILGNGEIETMLYPSGIFTDKASLFPQNLSWLRPLATTSMAASVPNKLWLGALSAAQNKDYLLKGGVRTKRQKLPAEYGTAFITGHSNGSVRIYDASHGDIQDNASFEVNLSRTLNKAKELAVDKISFAAETLELAVSIETGDVVLFKYEVNQFYSVENRPESGDLEMNFRRFSLNNTNGVLVDVRDRAPTGVRQGFMPSTAVHANKGKTSAINNSNIGFVGIAYAAGSLMLIDRRGPAIIYMENIREISGAQSACVTCIEFVIMEYGDDGYSSILMVCGTDMGEVITYKILPASGGKFDVQLMDITNVTSKGPIHKIDAFSKETKSSCLATIPKMQNLSKGLCIPGIVLITGFDDIRLITLGKSKSTHKGFKYPLAATGLSYISTVEKNNDRKNLTVIITLEINGHLRVFTIPDFKEQMSEHIPFPIAAKYITESSVLRNGDIAIRVSEFQASLFSTVKEQDTLAPVSDTLYINGIRIPYRPQVNSLQWARGTVYCTPAQLNELLGGVNRPASKYKESIIAEGSFSERSSDDNNANHPEHQYTKPTRKGRNSSYGVLRNVSRAVETRWDAVEDRFNDYATAMGETMNEAVEQTGKDVMKGALGF

Variants of: B1
Details: with sec9_yeast SEC9, P40357
Chain of sec9_yeast SEC9, P40357 (P40357 whole entry): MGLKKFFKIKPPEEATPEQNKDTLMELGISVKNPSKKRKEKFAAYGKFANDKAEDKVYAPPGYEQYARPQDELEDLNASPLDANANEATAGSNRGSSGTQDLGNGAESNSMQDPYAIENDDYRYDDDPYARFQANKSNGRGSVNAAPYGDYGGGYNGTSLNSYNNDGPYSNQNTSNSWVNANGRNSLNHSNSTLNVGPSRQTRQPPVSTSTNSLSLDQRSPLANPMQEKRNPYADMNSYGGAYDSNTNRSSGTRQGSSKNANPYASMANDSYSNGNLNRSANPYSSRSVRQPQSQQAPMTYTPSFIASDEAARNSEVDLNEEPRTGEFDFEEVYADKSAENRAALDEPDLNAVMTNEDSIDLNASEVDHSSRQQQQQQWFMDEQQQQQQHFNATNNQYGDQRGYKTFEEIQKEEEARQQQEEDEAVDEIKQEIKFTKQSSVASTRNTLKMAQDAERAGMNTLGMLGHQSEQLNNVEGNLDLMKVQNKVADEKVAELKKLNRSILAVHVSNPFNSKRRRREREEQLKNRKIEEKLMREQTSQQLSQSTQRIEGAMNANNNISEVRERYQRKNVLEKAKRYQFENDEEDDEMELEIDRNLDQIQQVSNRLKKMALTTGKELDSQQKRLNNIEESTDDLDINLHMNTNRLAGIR

Q: For R664A, which “effect of a mutation on the interaction” value is on record?
A: decreasing interaction strength

Q: P721A was tested. Which “effect of a mutation on the interaction” value did it give?
A: disrupting interaction strength

Q: How did the “effect of a mutation on the interaction” value turn out when M764A was run?
A: decreasing interaction strength

Q: Y700A was tested. Which “effect of a mutation on the interaction” value did it give?
A: disrupting interaction strength

Q: For E562A, which “effect of a mutation on the interaction” value is on record?
A: decreasing interaction strength
